Target: Mycobacterium tuberculosis cell wall sulfoglycolipid peptide on CD1b (human)
Assay: IFN-γ ELISPOT. CD4 clone of primary T cells transduced with the A05 TCR, with K562-CD1b. SGL was titrated from 1 µg/ml to 10^-7 µg/ml. This EC50 is stated to be 100-fold lower than that of an A05-CD8 T cell clone.; full-length, on cells
Conditions: chains alpha TRAV13-2 TRAJ52 CDR3:beta TRBV20-1 TRBJ1-2 CDR3

B1: A05 TCR (peptide)
chain 1: CAEVLGGTSYGKLTF
chain 2: CSASGRRGYGYTF
  EC50 of peptide: 0.6 ng/mL
